From publication PMC8401255

Biological target: gramicidin A (Bacillus brevis)
Assay: single-channel electrophysiology on a planar lipid bilayer; gA in a free-standing DPhPC planar bilayer (painting method, n-decane); dimer (channel) lifetime recorded with an Axopatch amplifier for 30 min at 20 °C; lidocaine or tetracaine in the buffer at 1, 3, 6 and 10 mM; lifetime normalised to that without local anesthetic (tau/tau0); monomer to dimer

gramicidin A (peptide)
normalized dimer lifetime (tau/tau0) at 1 mM lidocaine: 1.33 | normalized dimer lifetime (tau/tau0) at 1 mM tetracaine: 1.88 | normalized dimer lifetime (tau/tau0) at 10 mM lidocaine: 3.66 | normalized dimer lifetime (tau/tau0) at 10 mM tetracaine: 6.85
